# Measurements: PMC5708649, “A novel Porphyromonas gingivalis enzyme: An atypical dipeptidyl peptidase III with an ARM repeat domain” (PLoS ONE, 2017)
# Legend:
# [1] = test system: Cc1cc(=O)oc2cc(NC(=O)[C@H](CCCNC(=N)N)NC(=O)[C@@H](N)CCCNC(=N)N)ccc12; assay: purified protein, by the assay type; conditions: pH 8.0; 26.0 °C
# [2] = test system: N=C(N)NCCC[C@H](NC(=O)[C@@H](N)CCCNC(=N)N)C(=O)Nc1ccc2ccccc2c1; assay: purified protein, by the assay type; conditions: pH 8.0; 26.0 °C
substance,measurement,setting,value
DPP III fragment (1–679 aa) (Porphyromonas gingivalis W83),Km,[1],9.97 ± 0.44 µM
same,kcat,[1],0.0024 ± 0.0014 s⁻¹
same,kcat/Km,[1],241 M⁻¹ s⁻¹
same,Km,[2],4.37 ± 0.42 µM
same,kcat,[2],0.0032 ± 0.0005 s⁻¹
same,kcat/Km,[2],732 M⁻¹ s⁻¹
